Measurements published in patent US7314724B2, “Therapeutic applications of laminin and laminin-derived protein fragments” (University of Washington, priority 1996, dated 2008).
pKd: −log10 of the molar value.

Target: T1, Aβ (1-40) (Homo sapiens, UniProt P05067)
T1 construct: 2 μg of Aβ (1-40)(Bachem Inc., Torrance, Calif. USA; Lot #WM365); purchased Bachem Inc., Torrance, Calif; Lot #WM365
Experiment: Solid phase binding immunoassay of laminin to substrate bound Aβ (1-40)
Conditions: one-site model, single binding constant; read-out: apparent dissociation constant Kd, binding to immobilized Aβ (1-40)
Procedure: 2 μg of Aβ (1-40)(Bachem Inc., Torrance, Calif. USA; Lot #WM365) in 40 μl of Tris-buffered saline (TBS)(pH 7.0) was allowed to bind overnight at 4° C. to microtiter wells (Nunc plates, Maxisorb). The next day all of the microtiter wells were blocked by incubating with 300 μl of Tris-buffered saline containing 100 mM Tris-HCl, 50 MM NaCl, 0.05% Tween-20, and 3 mM NaN3 (pH 7.4)(TTBS) plus 2% bovine serum albumin (BSA). Various dilutions (ie. 1:10, 1:30, 1:90, 1:270, 1:810, 1:2430 and 1:7290) of Engelbreth-Holm-Swarm (EHS) mouse tumor laminin (1 mg/ml)(Sigma Chemical Co., St. Louis, Mo., USA) in 250 μl of TBS (pH 7.4) were placed in wells (in triplicate) either containing substrate bound Aβ (1-40) or blank, and allowed to bind overnight at 4° C. overnight. […] The reaction was stopped with 50 μl of 4N H2SO4 and read on a Model 450 microplate reader (Biorad, Hercules, Calif. USA) at 490 nm. Data points representing a mean of triplicate determinations were plotted and the affinity constants (ie. Kd) were determined using Ultrafit (version 2.1, Biosoft, Cambridge, U.K.) as described below.
The binding data were analyzed assuming a thermodynamic equilibrium for the formation of the complex BL, from the laminin ligand in solution, L, and the uncomplexed Aβ adsorbed to the microtiter well, B, according to the equation: Kd=[B]×[L]/[BL]. […]

T1 sequence (P05067 672-711 limits assumed): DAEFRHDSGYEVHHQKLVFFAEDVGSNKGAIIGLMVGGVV

“laminin: Engelbreth-Holm-Swarm (EHS) mouse tumor laminin (Sigma); 850 kDa basement membrane glycoprotein of A, B1 and B2 chains” showed a pKd of 8.57.
